Results taken from patent publication US20250313645A1 (COMPASS THERAPEUTICS, published 2025).

What was measured:
[1] = target: T1, Fc-, mouse IgG2a-, or His-tagged human CD137 (human, UniProt Q07011 24-186); test: BLI (Octet HTX), tagged CD137 on biosensor, Fab 0-500 nM in solution, global 1:1 fit, apparent KD; upper end of the printed range 50-70 nM
T1 construct: Sources were ACRO Biosystems, Sino Biological and internal; not shown: Fc, mouse IgG2a or His tag
Method: (§1) The anti-CD137 antibodies were further tested for their binding to CD137 from multiple species. Specifically, mAb1, mAb8 and mAb10 were analyzed for binding to human, mouse, cynomolgus and canine CD137. Kinetic experiments were performed on OCTET HTX (ForteBio) in kinetics buffer (1×PBS, pH 7.4, 0.1 mg/ml BSA, and 0.002% Tween 20). Fc-, mouse IgG2a-, or His-tagged CD137 (human, mouse, cyno or canine) were loaded for 5 minutes on pre-hydrated biosensors, AHC, AMC or NTA respectively. The sensors were then dipped into Fabs (0, 5.12, 12.8, 32, 80, 200 and 500 nM) for 5 minutes of association, following by 15 minutes of dissociation. Results were analyzed with ForteBio Data Analysis 9.0 and fit globally to a 1:1 binding model to determine the apparent KD. KD for human and mouse CD137 binding were confirmed by using antigens from different sources (ACRO Biosystems, Sino Biological and internal).

[2] = target: T1, Fc-, mouse IgG2a-, or His-tagged human …; test: BLI (Octet HTX), tagged CD137 on biosensor, Fab 0-500 nM in solution, global 1:1 fit, apparent KD; lower end of the printed range 50-70 nM
Method: as §1

Kd [1]: ≤ 0.07 µM
Kd [2]: ≥ 0.05 µM
B1: mAb1 Fab (Fab, V domains shown)
VH: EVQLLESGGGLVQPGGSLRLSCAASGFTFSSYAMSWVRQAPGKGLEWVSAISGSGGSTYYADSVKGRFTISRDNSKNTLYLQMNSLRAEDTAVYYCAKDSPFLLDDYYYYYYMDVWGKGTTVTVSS
VL: DIQMTQSPSSVSASVGDRVTITCRASQGISSWLAWYQQKPGKAPKLLIYAASSLQSGVPSRFSGSGSGTDFTLTISSLQPEDFATYYCQQGHLFPITFGGGTKVEIK
